# Key:
# [1] = target: VirD2-binding protein (VBP), full-length, wild type, 6His-tagged (Agrobacterium tumefaciens C58); assay: AUC; sedimentation velocity, 1 mg/ml, 40,000 rpm, 24°C, absorbance at 280 nm, Sedfit
# [2] = target: VirD2-binding protein (VBP), full-length, wild type, 6His-tagged (Agrobacterium tumefaciens C58); assay: SEC; size-exclusion chromatography of the purified protein, apparent mass against molecular weight standards; 200 mM NaCl buffers (VBP: 20 mM Tris-HCl pH 8.0, 5% glycerol; HEPN: 30 mM CHES pH 9.0, 5% glycerol; NT: 30 mM Tris-HCl pH 7.5)
# [3] = target: T1, VBP (VirD2-binding protein) (Agrobacterium fabrum, UniProt Q7CW19); assay: isothermal titration calorimetry
# T1 construct: gene Atu4856; full-length VBP with 6His tag (pET32a, E. coli BL21(DE3)); homodimer 75 kDa; predicted NT domain aa 10-133, HEPN domain aa 159-279
# [4] = target: C-terminal (HEPN) domain of VBP (Agrobacterium tumefaciens C58); assay: AUC; sedimentation velocity, 1 mg/ml, 40,000 rpm, 24°C, absorbance at 280 nm, Sedfit
# [5] = target: C-terminal (HEPN) domain of VBP (Agrobacterium tumefaciens C58); assay: SEC; size-exclusion chromatography of the purified protein, apparent mass against molecular weight standards; 200 mM NaCl buffers (VBP: 20 mM Tris-HCl pH 8.0, 5% glycerol; HEPN: 30 mM CHES pH 9.0, 5% glycerol; NT: 30 mM Tris-HCl pH 7.5)
molecule,measurement,setting,value
"VirD2-binding protein (VBP), full-length, wild type, 6His-tagged (natural protein)",stoichiometry N,[1],2
same,stoichiometry N,[2],2
Nc1ncnc2c1ncn2[C@@H]1O[C@H](COP(=O)(O)OP(=O)(O)NP(=O)(O)O)[C@@H](O)[C@H]1O [AMPPNP],Kd,[3],2000 nM
C-terminal (HEPN) domain of VBP (domain or fragment),stoichiometry N,[4],2
same,stoichiometry N,[5],2
